The source of these data is the Immune Epitope Database (IEDB).

For assay [1], the target named is HLA-B*44:03. The assay is described as follows: IEDB peptide-MHC binding, purified MHC/competitive/radioactivity; filed as Kd, often an IC50 or EC50 that approximates it; ≥ and ≤ were set here for values at or beyond the usual limits of such assays.
In assay [2] the target is HLA-B*44:02. The assay is described as above.
Assay [3] concerns the target HLA-B*40:01. The description is as above.
Assay [4] addresses HLA-B*08:01. The description is as above.
The target of assay [5] is HLA-A*02:01. Description: IEDB peptide-MHC binding, purified MHC/competitive/fluorescence; ≥ and ≤ were set here for values at or beyond the usual limits of such assays.
Assay [6] addresses HLA-A*24:02. The assay is described as follows: IEDB peptide-MHC binding, purified MHC/competitive/radioactivity; filed as Kd, often an IC50 or EC50 that approximates it; ≥ and ≤ were set here for values at or beyond the usual limits of such assays.
Assay [7] deals with HLA-A*01:01. The assay is described as follows: IEDB peptide-MHC binding, purified MHC/direct/fluorescence; filed as Kd, often an IC50 or EC50 that approximates it; ≥ and ≤ were set here for values at or beyond the usual limits of such assays.
The target in assay [8] is HLA-A*69:01. Described as above.
Assay [9] addresses HLA-B*07:02. Described as above. The note with it: source organism: Mycobacterium tuberculosis variant bovis BCG str. Pasteur 1173P2.
The target of assay [10] is HLA-A*02:01. The description is as above.
Assay [11] deals with HLA-A*31:01. The description is as above.
For assay [12], the target named is HLA-A*03:01. Described as above. The note with it: source organism: Pseudomonas aeruginosa UCBPP-PA14.
For assay [13], the target named is HLA-A*30:02. The assay is described as follows: IEDB peptide-MHC binding, purified MHC/competitive/radioactivity; filed as Kd, often an IC50 or EC50 that approximates it; ≥ and ≤ were set here for values at or beyond the usual limits of such assays. The note with it: source organism: Mammarenavirus guanaritoense.
Assay [14] concerns the target HLA-A*26:01. Described as above. The note with it: source organism: Mammarenavirus guanaritoense.
In assay [15] the target is HLA-B*40:01. Description: IEDB peptide-MHC binding, purified MHC/direct/fluorescence; filed as Kd, often an IC50 or EC50 that approximates it; ≥ and ≤ were set here for values at or beyond the usual limits of such assays. To be noted: source organism: Haemophilus influenzae.
The target in assay [16] is HLA-B*58:01. The assay is described as above. The note with it: source organism: Bacillus anthracis str. A0488.
Assay [17] deals with HLA-B*57:01. Described as above. The note with it: source organism: Bacillus anthracis str. A0488.
The mark [18] stands for this setting: source organism: Dengue virus 3 Martinique/1243/1999.
Where [19] appears, read: source organism: Dengue virus 1 Brazil/97-11/1997.
Setting [20] is: source organism: Zaire ebolavirus.
Setting [21] is: source organism: Dengue virus 2 Jamaica/1409/1983.
The mark [22] stands for this setting: source organism: Vaccinia virus WR.
Where [23] appears, read: source organism: Sudan ebolavirus.
Where [24] appears, read: source organism: Bacillus anthracis.
Where [25] appears, read: source organism: Vibrio parahaemolyticus.
Where [26] appears, read: source organism: Dengue virus 3 Singapore/8120/1995.
The mark [27] stands for this setting: source organism: Haemophilus influenzae.

Consider EEEMFKKRNL, for which the Kd is 815 nM in assay [1] (setting [18]), 90 nM in [2] (setting [18]) and ≥ 64300 nM in [3] (setting [18]). As to SMAMRCVGI, the Kd in assay [4] (setting [19]) was 5.95 nM. For the sequence LNGRKRSTI, the dissociation constant (Kd) in [4] (source organism: Dengue virus 4 Dominica/814669/1981) was 135 nM. With TQSRPIQNV, the concentration for half-maximal inhibition (IC50) in [5] (setting [20]) worked out at 14600 nM.

In the case of AEPDGPTPEL, the Kd in assay [3] (setting [18]) was found to be 10.7 nM.

Take TWPKSHTLW: the Kd in [6] (setting [18]) was 39.8 nM.

As for GEYRLRGEAR, the dissociation constant Kd in [3] (setting [21]) was 1900 nM. LYAVATTFIT: the Kd in [6] (source organism: Dengue virus 2 Peru/IQT2913/1996) is ≥ 23500 nM.

NLTYVQLES showed an IC50 in assay [5] (setting [20]) of 11000 nM. On to ENMLRSMPV, for which, in assay [4] (setting [22]), the dissociation constant (Kd) turned out to be 0.213 nM.

Consider NEAIMAVGM, for which the dissociation constant Kd in [1] (setting [21]) was 224 nM; in assay [2] (setting [21]), 84.5 nM. Turning to EGAFFLYDR, the half-inhibitory concentration (IC50) in assay [5] (setting [20]) is ≥ 508000 nM. CPRRYLHRL: the Kd in [4] (setting [22]) is 2.66 nM. Consider GSDGGLDDY, for which the Kd turned out to be 58.1 nM in assay [7] (source organism: Homo sapiens) and 1930 nM in assay [8] (source organism: Homo sapiens). Regarding SELPETLETL, the Kd in assay [3] (setting [21]) came to 7.2 nM. Regarding SKRMRVDII, the dissociation constant (Kd) in [4] (setting [22]) amounted to 8230 nM. As for AETQNSSFII, the values for the equilibrium dissociation constant (Kd) in [1] (setting [18]), in [2] (setting [18]) and in assay [3] (setting [18]) were 34.7 nM, 63.8 nM and 23.1 nM, respectively. In the case of RPEAAAGQL, in assay [9], the Kd was 179 nM. The sequence LGLITNTIA gave a half-maximal inhibitory concentration (IC50) in assay [5] (setting [20]) of 35300 nM. As to VTNSTLEVT, the IC50 in assay [5] (setting [23]) was ≥ 122000 nM. For LKDGPERVIL, the Kd in [4] (setting [19]) was 2540 nM.

In turn, QIPSSSPTT returned an IC50 in assay [5] (setting [23]) of 42800 nM.

Take NLSPETLVG: the concentration for half-maximal inhibition (IC50) in [5] (source organism: Vaccinia virus) is ≥ 170000 nM.

With VLRGNRQGL, the values for the Kd in assay [8] (setting [24]) and in assay [10] (setting [24]) were ≥ 20000 nM and 4460 nM, respectively. In the case of ITQKGIIFIL, the dissociation constant (Kd) in assay [4] (setting [19]) was found to be 577 nM.

On to EELPETMETL, for which the dissociation constant (Kd) in assay [3] (setting [18]) turned out to be 191 nM. As to MVTGGIRRR, the equilibrium dissociation constant (Kd) is 251 nM in [11] (source organism: Pseudomonas aeruginosa UCBPP-PA14) and ≥ 20000 nM in assay [12]. On to KWKSRLNAL, for which the Kd in assay [4] (setting [21]) is 65.6 nM.

For the sequence FQLAAPSGF, the values for the Kd in [8] (setting [25]) and in assay [10] (setting [25]) were ≥ 20000 nM and 9000 nM, respectively. Turning to FFLYDRLAS, in assay [5] (setting [23]), the IC50 is 40000 nM. For the sequence TLAGVNVGE, in assay [5] (setting [20]), the IC50 was ≥ 211000 nM. As for SAKTKISVE, the dissociation constant (Kd) in assay [4] (setting [22]) was 238 nM.

As for HEEPIPMSTY, the Kd turned out to be 251 nM in assay [1] (setting [21]) and 397 nM in assay [2] (setting [21]). For EEHSSTWHY, the dissociation constant (Kd) in [1] (setting [26]) was 41 nM; in assay [2] (setting [26]), 17.6 nM. With MASTPASRY, the equilibrium dissociation constant (Kd) in assay [7] (source organism: Influenza A virus (A/Fujian/411/02-like(H3N2))) is ≥ 20000 nM. As to IRFPRFTRI, in assay [4] (setting [22]), the equilibrium dissociation constant (Kd) was 1600 nM. With IHLAIMAVF, the dissociation constant (Kd) in assay [6] (source organism: Dengue virus 4 Philippines/H241/1956) turned out to be 71.9 nM. With NAGQFLSFA, the half-inhibitory concentration (IC50) in assay [5] (setting [20]) was ≥ 121000 nM. As for SFTVVSNGA, the IC50 in [5] (setting [20]) was ≥ 372000 nM. Regarding AYVVIGILTL, the Kd in [6] (setting [18]) is 938 nM. For the sequence GMVPLHIPE, the IC50 in assay [5] (setting [23]) was ≥ 103000 nM. On to KRHSTKYHL, for which the Kd in [13] is ≥ 33300 nM; in assay [14], ≥ 77900 nM; in assay [6] (source organism: Mammarenavirus guanaritoense) it was ≥ 60300 nM. On to RFEAYGWQV, for which the Kd in [8] (setting [27]) was found to be 337 nM; in assay [11] (setting [27]), 924 nM; in assay [15], 227 nM. Turning to IARQYEQEM, the values for the Kd in assay [16] and in assay [17] were 15000 nM and 515 nM, respectively. KCDICTDEY showed a Kd in [7] (source organism: Homo sapiens) of 806 nM.
